In the nanobody polyreactivity screen of Harvey et al. (2022):

Experiment: yeast display, Sf9 membrane polyspecificity reagent, FACS + sequencing; frameworks hold sequencing errors
In short: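 Nanobodies came from a synthetic yeast display library in Saccharomyces cerevisiae BJ5465, induced with galactose for 36–48 hours and stained for 1 hour at 4 °C with 10% biotinylated, detergent-solubilized Sf9 membrane reagent. Cells were enriched on streptavidin microbeads and then FACS-sorted, with low and high (top ~1%) gates set on anti-HA fluorescence for expression and streptavidin fluorescence for reagent binding. Each polyreactivity label reflects the gate a clone came from. Genes were amplified by colony PCR, sequenced by MiSeq 2 × 250 and filtered by CDR length.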

Sequence	polyreactivity (PSR sort gate)
QVQHVESGGGLVQAGGSLRLSCAASGSTFWYNAMGWYRQAPGKERELVAAISYSGGRTYYADSVKERFTISRDNAKNTVYLQMNSLKPEDTAVYYCNAASRYGGDYWGQGTQVTVSS	low polyreactivity
QVQHVESGGGLVQAGGSLRLSCAASGSTFYYYAMGWYRQAPGKERELVAAIRSDVSTNYADSVKGRFTISRDNAKNTVYLQMNSLKPEDTAVYYCAARFPWNRVTYDYWGQGTQVTVSS	low polyreactivity
QVQHVESGGGLVQAGGSLRLSCAASGSTIRRNAMGWYRQAPGKERELVAAISGTGGRTYYADSVKGRFTISRDNAKNTVYLQMNSLKPEDTAVYYCNAAGRFYWGQGTQVTVSS	high polyreactivity
QVQHVESGGGLVQAGGSLRLSCAASGSTLGGYAMGWSRQAPGKERELVAAISGSGGSTYYADSVKGRFTISRDNAKNSVYLQMNSLKPEDTAVYYCNAAVLGGIYRYYDYRYDYWGQGTQLTVSS	low polyreactivity
QVQHVESGGGLVQAGGSLRLSCAASGSTLSRYVMGWDRQAPGKERELVASISWTGTRTYYADSVKGRFTISRDNAKNTVYLQMNSLKPEDTAVYYCNAVSRGGRLYDYWGQGTQVTVSS	high polyreactivity
QVQHVESGGGLVQAGGSLRLSCAASGYTFFANAMGGYRQAPGKERELVAGINRSGSTYYADSVKGRFTISRDNAKNTVYLQMNSLKPEDTAVYYFATAWHRGVRGRTSGAFDYWGQGTQVTVSS	high polyreactivity
QVQHVESGGGLVQAGGSLRLSCAATGTTFDTYAMGWNRQATGKERELVAAINSGGGTNYADSVKGRFTIARDNAKNTVYLQMNSLKPEVTAVYYCATDIRRDAGGGDFDYWGQGTQVTVSS	low polyreactivity
QVQHVESGGGLVQAGGSLRLSCADSGSTFWFNAMGWYRQAHGKERELVAAIDWSDGSTYYADSVKGRFTISRDNAKNTVYLQMNSLKPEDTAVYYCAADHRYSARRSVPTLYDYWGQGTHVTVSS	low polyreactivity
QVQHVESGGGLVQAGGSLRLSCASSGRIIGKYVMAWYRQAPGKERELVAGISWSAGSTYYADSVKGRFTISRDNAKNTVYLQMNSLKPEDTAVYYCAAGLEGVYDYWGQGTQVTVSS	low polyreactivity
QVQHVESGGGLVQAGGSLRLSCDASGITFGHYTMGWYRQAHGKEREFVAAISWSGGSTYYADSVKGRFTISRDNAKNTVYLQMNSLKPEYTAVYYCNRVKPVIASYDSDYWGQGTQVTVSS	low polyreactivity
QVQHVESGGGLVQAGGSLRLSGAASGSTFTYNTMGWYRQAPGKERELVAAITTYGGNTYYADSVKGRFTISRDNAKNTVYLQMNSLKPEDSAVYYCAARVIFGDFDYWGQGTQVTVSS	low polyreactivity
QVQHVESGGGLVQAGGSLRLTCAASARIFRYYPMGRYRPAPGKERELVAGITTGGGSTYYADSVKGRFTISRENAKNTVYLQMNSLKPEDTAVFYCAARYYTTYYWGQGTQVTVSS	high polyreactivity
QVQHVESGGGLVQAGGSLSLSCAASGRTILWNAMGWYRQAPGKERELVAAITSGGRTYYADSVKGRFTISRDNAKNTVYLQMNSLIPEDTAVYYCAASTVYWSTVNSQARFNYWGQGTQVTVSS	high polyreactivity
QVQHVESGGGLVQAGGSLSLSCADSGITFYRYAMGCDRQAPAKERELVDRISQIGGSTYYADSVKGRFTISRDNAKNTVYLQMNSLKPEDTAVYYCNARVRYSTVTYLRKYYYWGQGTQVTVSS	high polyreactivity
QVQHVESGGGLVQAGVSLRLSCAASGSIFVNNGMGWYRQAPGKERELVAAIRLSTGSTYYADSVKGRFTISRDNAKNTVYLQMNSLKPEDTAVYYCATRSYIWGNWGQGTQVTVSS	high polyreactivity
QVQHVESGGGLVQARGSLRLSCAASGSIFWYNAMGWYRQAPGTVRELVAAINWSGGSTFYADSVKGRFTISRDNAKNTVYLQMNSLKPEDTAVDYCAADDWYTGYDYWGQGTQVTVSS	high polyreactivity

Sequence	polyreactivity (PSR sort gate)
QVQHVESGGGLVQAVGSLRLSCAASGNIFDRNAMGWYRQARGKERELVAAISRSGGRTYYADSVKGRFTISRDNAKNTVYLQMNSLKPEDTAVYYCNRRYRKYSSAKYDYWGQGTQVTVSS	high polyreactivity
QVQHVESGGGLVQEGGSLRLSCAASGRIFRTNAMVWYRQAPGKERELVAAITRDGTTNYADSVKGRFTISRDNAKNTVYLQMNSLIPEDTAVYYCNARYRRSPIKFTYVRYVYEYDYWGQGTQVTVSS	low polyreactivity
QVQHVESGGGSVQAGGRLRLSCAASGSTFIEYAMGWYRKAPGKERELVAGITTSSGRTSYADSVKGRFTISRDNAKNTVYLQMNSLKPEDTAVYYCAAKSYSDYDYWGQGTQVTVSS	low polyreactivity
QVQHVESGGGVVQAVGSLRLSCAASGYIFRTNAMGWYRQARGKERELVAAITRSGGRTYYADSVKGRFTISRDNAKNTVYLQMNSLKPEDTAVYYCAAGGRKPVITGDYWGQGTQVTVSS	high polyreactivity
QVQHVESGRGFVKAGCSLRLSCASSGSIFVKNAMGRYRQAPGKERELVARITYSGGSTYYADSVKGRFTISRDNAKNTVYLQMNSVKPEDNAGYYCARTRKIAGYYYWGQGTQVTESS	high polyreactivity
QVQHVESRGCLLQAGGSLRLSCAASGITFRYYTMGWYRQAPGKESELVAAITWSGSSTYYAVSVKGRFTISRDNAKNTVYLQMNSLKPEHTAVYYCAKPYHQRSAKVDYWGQGTQVTVSS	low polyreactivity
QVQHVESRGGIVQAGGSLRLSCAASGFTFAYYAMGRYRQAPGKERELVAAINYSGGSTYYADSVKGRFTISRDNAKNTVYLQMNSLKPEDTAVYYCATEYYRYDGSSYDYWGQGTQVTVSS	high polyreactivity
QVQHVESRGGLVQAGGSLRLSCAASGFISRAYAMGWYRQAPGKERELVAAISVRVGSTYYADSVKGRFTISRDNAKNTVYLQMYSLKPEDTAVYYCAALRPWPRYDYWGQGTQVTVSS	high polyreactivity
QVQHVESRGGLVQAGGSLRLSCAASGFTFYYNAMGWYRQAPVKERELVAIRFRGGNTYYADSVKGRFTISRDNAKNTVYLQMNSLKPEDTAVYYCNADDRGSTYVDFVYWGQGTQVTVSS	low polyreactivity
QVQHVESRGGLVQAGGSLRLSCAASGRIFPRYAMGWYRQAPGKERELVAAISWSGGSTYYADSVKGRFTISRDNAKNTVYLQMNSLKPEDTAVYYCAARGRLRYSGSIIYYWGQGTQVTVSS	high polyreactivity
QVQHVESRGGLVQAGGSLRLSCAASGRIFTGYAMGWYRQAPGKERELVAAITASGGNTYYADSVKGRFTISRVNAKNTVYLQMNSLTPEDTAVFYCAADFYYYKIQYAYWGQGTQVTVSS	low polyreactivity
QVQHVESRGGLVQAGGSLRLSCAASGRSFSDYAMGGYRQAAGKERELVASINSGGSTYYADSVKGRFTISRDKAKNTVYLHMNSLKPEDTAVYYCAAGFQLVKGSLSGRAAYYYWGQGTQVTVSS	high polyreactivity
QVQHVESRGGLVQAGGSLRLSCADSGSIFRAYAKGWYIQAPGKERELVADISRSGGSTYYADSVKGRFTISRDNANNTVYLQMNRLNPEDTAVYYCAAVFYLYSNLYGEYEYWGQGTQVTLSS	low polyreactivity
QVQHVESRRGLVQAGGSLRLSCAASGFTFYSYAMGWYRQAPGKEREFVAAGSTYYADSVKGRFTISRDNAKNTDYLQMNSLKPEDTAVYYCATDPIGGWTRPQRYGDDYWGQGTQVTVSS	low polyreactivity
QVQHVESVGGLVQAGGSLRLSCAASGSIFEYNAMGWYRQAPGKERELVAAISWSSGTTYYADSVKGRFTISRDNAKNTVYLQMNSLKPEDTAVYYCNAGRYGKDSDYWGQGTQVTVSS	low polyreactivity
QVQHVVSVGGLVQAGGSLRLSCAASGSTFLLNTMGWYRQAPGKERELVAAISSITGDTYYADSVKGRFTISRDNAKNTVYLQMNSLKPEDTAVYYCAAYLSETRPYLYDYWGLGTQVTVSS	low polyreactivity
